According to the supplement of paper PMC11316812:
± gives the standard deviation of the averaged measurements.

Legend:
MCF7 = assay: percentage of EdU-negative (G0-arrested) nuclei per well, 72 h; higher = more G0 arrest; settings: reference: sequence is the full UniProt precursor, the tested protein was the secreted form or ectodomain
hTERT-HMEC = assay: as above; settings: reference: sequence is the full UniProt precursor, the tested protein was the secreted form or ectodomain
[1] = protein concentration 0.01475 µM
[2] = protein concentration 0.1475 µM
[3] = protein concentration 0.01392 µM
[4] = protein concentration 0.1392 µM
[5] = protein concentration 0.0055 µM
[6] = protein concentration 0.0225 µM
[7] = protein concentration 0.01175 µM
[8] = protein concentration 0.1175 µM
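Further: secreted proteins added to cultured cells, EdU pulse at the end, nuclei found by Hoechst imaging, EdU status from nuclear versus surrounding ring intensity ratio, PBS as neutral control.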

Sequence | percentage of EdU-negative (MCF7; [6]) | percentage of EdU-negative (MCF7; protein concentration 0.225 µM) | percentage of EdU-negative (hTERT-HMEC; [6]) | percentage of EdU-negative (hTERT-HMEC; protein concentration 0.225 µM) | further results
MRLHLLLLLALCGAGTTAAELSYSLRGNWSICNGNGSLELPGAVPGCVHSALFQQGLIQDSYYRFNDLNYRWVSLDNWTYSKEFKIPFEISKWQKVNLILEGVDTVSKILFNEVTIGETDNMFNRYSFDITNVVRDVNSIELRFQSAVLYAAQQSKAHTRYQVPPDCPPLVQKGECHVNFVRKEQCSFSWDWGPSFPTQGIWKDVRIEAYNICHLNYFTFSPIYDKSAQEWNLEIESTFDVVSSKPVGGQVIVAIPKLQTQQTYSIELQPGKRIVELFVNISKNITVETWWPHGHGNQTGYNMTVLFELDGGLNIEKSAKVYFRTVELIEEPIKGSPGLSFYFKINGFPIFLKGSNWIPADSFQDRVTSELLRLLLQSVVDANMNTLRVWGGGIYEQDEFYELCDELGIMVWQDFMFACALYPTDQGFLDSVTAEVAYQIKRLKSHPSIIIWSGNNENEEALMMNWYHISFTDRPIYIKDYVTLYVKNIRELVLAGDKSRPFITSSPTNGAETVAEAWVSQNPNSNYFGDVHFYDYISDCWNWKVFPKARFASEYGYQSWPSFSTLEKVSSTEDWSFNSKFSLHRQHHEGGNKQMLYQAGLHFKLPQSTDPLRTFKDTIYLTQVMQAQCVKTETEFYRRSRSEIVDQQGHTMGALYWQLNDIWQAPSWASLEYGGKWKMLHYFAQNFFAPLLPVGFENENTFYIYGVSDLHSDYSMTLSVRVHTWSSLEPVCSRVTERFVMKGGEAVCLYEEPVSELLRRCGNCTRESCVVSFYLSADHELLSPTNYHFLSSPKEAVGLCKAQITAIISQQGDIFVFDLETSAVAPFVWLDVGSIPGRFSDNGFLMTEKTRTILFYPWEPTSKNELEQSFHVTSLTDIY |  |  |  |  | percentage of EdU-negative (MCF7; [1]): 25.3 ± 0.54%; percentage of EdU-negative (MCF7; [2]): 28.1 ± 0.47%; percentage of EdU-negative (hTERT-HMEC; [1]): 5.29 ± 0.2%; percentage of EdU-negative (hTERT-HMEC; [2]): 5.9 ± 0.22%
MRLKNLTFIIILIISGELYAEEKPCGFPHVENGRIAQYYYTFKSFYFPMSIDKKLSFFCLAGYTTESGRQEEQTTCTTEGWSPEPRCFKKCTKPDLSNGYISDVKLLYKIQENMRYGCASGYKTTGGKDEEVVQCLSDGWSSQPTCRKEHETCLAPELYNGNYSTTQKTFKVKDKVQYECATGYYTAGGKKTEEVECLTYGWSLTPKCTKLKCSSLRLIENGYFHPVKQTYEEGDVVQFFCHENYYLSGSDLIQCYNFGWYPESPVCEGRRNRCPPPPLPINSKIQTHSTTYRHGEIVHIECELNFEIHGSAEIRCEDGKWTEPPKCIEGQEKVACEEPPFIENGAANLHSKIYYNGDKVTYACKSGYLLHGSNEITCNRGKWTLPPECVENNENCKHPPVVMNGAVADGILASYATGSSVEYRCNEYYLLRGSKISRCEQGKWSSPPVCLEPCTVNVDYMNRNNIEMKWKYEGKVLHGDLIDFVCKQGYDLSPLTPLSELSVQCNRGEVKYPLCTRKESKGMCTSPPLIKHGVIISSTVDTYENGSSVEYRCFDHHFLEGSREAYCLDGMWTTPPLCLEPCTLSFTEMEKNNLLLKWDFDNRPHILHGEYIEFICRGDTYPAELYITGSILRMQCDRGQLKYPRCIPRQSTLSYQEPLRT |  |  |  |  | percentage of EdU-negative (MCF7; [3]): 26.7 ± 0.98%; percentage of EdU-negative (MCF7; [4]): 25.4 ± 0.69%; percentage of EdU-negative (hTERT-HMEC; [3]): 5.59 ± 0.28%; percentage of EdU-negative (hTERT-HMEC; [4]): 7.25 ± 1.1%
MRLLAKIICLMLWAICVAEDCNELPPRRNTEILTGSWSDQTYPEGTQAIYKCRPGYRSLGNVIMVCRKGEWVALNPLRKCQKRPCGHPGDTPFGTFTLTGGNVFEYGVKAVYTCNEGYQLLGEINYRECDTDGWTNDIPICEVVKCLPVTAPENGKIVSSAMEPDREYHFGQAVRFVCNSGYKIEGDEEMHCSDDGFWSKEKPKCVEISCKSPDVINGSPISQKIIYKENERFQYKCNMGYEYSERGDAVCTESGWRPLPSCEEKSCDNPYIPNGDYSPLRIKHRTGDEITYQCRNGFYPATRGNTAKCTSTGWIPAPRCTLKPCDYPDIKHGGLYHENMRRPYFPVAVGKYYSYYCDEHFETPSGSYWDHIHCTQDGWSPAVPCLRKCYFPYLENGYNQNYGRKFVQGKSIDVACHPGYALPKAQTTVTCMENGWSPTPRCIRVKTCSKSSIDIENGFISESQYTYALKEKAKYQCKLGYVTADGETSGSITCGKDGWSAQPTCIKSCDIPVFMNARTKNDFTWFKLNDTLDYECHDGYESNTGSTTGSIVCGYNGWSDLPICYERECELPKIDVHLVPDRKKDQYKVGEVLKFSCKPGFTIVGPNSVQCYHFGLSPDLPICKEQVQSCGPPPELLNGNVKEKTKEEYGHSEVVEYYCNPRFLMKGPNKIQCVDGEWTTLPVCIVEESTCGDIPELEHGWAQLSSPPYYYGDSVEFNCSESFTMIGHRSITCIHGVWTQLPQCVAIDKLKKCKSSNLIILEEHLKNKKEFDHNSNIRYRCRGKEGWIHTVCINGRWDPEVNCSMAQIQLCPPPPQIPNSHNMTTTLNYRDGEKVSVLCQENYLIQEGEEITCKDGRWQSIPLCVEKIPCSQPPQIEHGTINSSRSSQESYAHGTKLSYTCEGGFRISEENETTCYMGKWSSPPQCEGLPCKSPPEISHGVVAHMSDSYQYGEEVTYKCFEGFGIDGPAIAKCLGEKWSHPPSCIKTDCLSLPSFENAIPMGEKKDVYKAGEQVTYTCATYYKMDGASNVTCINSRWTGRPTCRDTSCVNPPTVQNAYIVSRQMSKYPSGERVRYQCRSPYEMFGDEEVMCLNGNWTEPPQCKDSTGKCGPPPPIDNGDITSFPLSVYAPASSVEYQCQNLYQLEGNKRITCRNGQWSEPPKCLHPCVISREIMENYNIALRWTAKQKLYSRTGESVEFVCKRGYRLSSRSHTLRTTCWDGKLEYPTCAKR |  |  |  |  | percentage of EdU-negative (MCF7; [5]): 25.1 ± 0.8%; percentage of EdU-negative (MCF7; protein concentration 0.055 µM): 25.5 ± 2.4%; percentage of EdU-negative (hTERT-HMEC; [5]): 5.14 ± 0.38%; percentage of EdU-negative (hTERT-HMEC; protein concentration 0.055 µM): 7.65 ± 0.92%
MRLLCGLWLWLSLLKVLQAQTPTPLPLPPPMQSFQGNQFQGEWFVLGLAGNSFRPEHRALLNAFTATFELSDDGRFEVWNAMTRGQHCDTWSYVLIPAAQPGQFTVDHGVEPGADREETRVVDSDYTQFALMLSRRHTSRLAVLRISLLGRSWLLPPGTLDQFICLGRAQGLSDDNIVFPDVTGWSPQASVC [Q6JVE5] | 28.3 ± 4% | 32.23 ± 0.31% | 4.84 ± 0.32% | 5.1 ± 0.82% | 
MRLLPLAPGRLRRGSPRHLPSCSPALLLLVLGGCLGVFGVAAGTRRPNVVLLLTDDQDEVLGGMTPLKKTKALIGEMGMTFSSAYVPSALCCPSRASILTGKYPHNHHVVNNTLEGNCSSKSWQKIQEPNTFPAILRSMCGYQTFFAGKYLNEYGAPDAGGLEHVPLGWSYWYALEKNSKYYNYTLSINGKARKHGENYSVDYLTDVLANVSLDFLDYKSNFEPFFMMIATPAPHSPWTAAPQYQKAFQNVFAPRNKNFNIHGTNKHWLIRQAKTPMTNSSIQFLDNAFRKRWQTLLSVDDLVEKLVKRLEFTGELNNTYIFYTSDNGYHTGQFSLPIDKRQLYEFDIKVPLLVRGPGIKPNQTSKMLVANIDLGPTILDIAGYDLNKTQMDGMSLLPILRGASNLTWRSDVLVEYQGEGRNVTDPTCPSLSPGVSQCFPDCVCEDAYNNTYACVRTMSALWNLQYCEFDDQEVFVEVYNLTADPDQITNIAKTIDPELLGKMNYRLMMLQSCSGPTCRTPGVFDPGYRFDPRLMFSNRGSVRTRRFSKHLL |  |  |  |  | percentage of EdU-negative (MCF7; [7]): 25.19 ± 0.18%; percentage of EdU-negative (MCF7; [8]): 25.1 ± 1.3%; percentage of EdU-negative (hTERT-HMEC; [7]): 5.009 ± 0.019%; percentage of EdU-negative (hTERT-HMEC; [8]): 5.44 ± 1.4%
MRLLPLLRTVLWAAFLGSPLRGGSSLRHVVYWNSSNPRLLRGDAVVELGLNDYLDIVCPHYEGPGPPEGPETFALYMVDWPGYESCQAEGPRAYKRWVCSLPFGHVQFSEKIQRFTPFSLGFEFLPGETYYYISVPTPESSGQCLRLQVSVCCKERKSESAHPVGSPGESGTSGWRGGDTPSPLCLLLLLLLLILRLLRIL | 27.2 ± 2.5% | 25.7 ± 0.36% | 5.7 ± 0.081% | 8.57 ± 0.56% | 
MRLLQLLFRASPATLLLVLCLQLGANKAQDNTRKIIIKNFDIPKSVRPNDEVTAVLAVQTELKECMVVKTYLISSIPLQGAFNYKYTACLCDDNPKTFYWDFYTNRTVQIAAVVDVIRELGICPDDAAVIPIKNNRFYTIEILKVE | 25.1 ± 2.6% | 25.5 ± 0.54% | 4.779 ± 0.024% | 5.95 ± 1.6% | 
MRLLVLLWGCLLLPGYEALEGPEEISGFEGDTVSLQCTYREELRDHRKYWCRKGGILFSRCSGTIYAEEEGQETMKGRVSIRDSRQELSLIVTLWNLTLQDAGEYWCGVEKRGPDESLLISLFVFPGPCCPPSPSPTFQPLATTRLQPKAKAQQTQPPGLTSPGLYPAATTAKQGKTGAEAPPLPGTSQYGHERTSQYTGTSPHPATSPPAGSSRPPMQLDSTSAEDTSPALSSGSSKPRVSIPMVRILAPVLVLLSLLSAAGLIAFCSHLLLWRKEAQQATETQRNEKFCLSRLTAEEKEAPSQAPEGDVISMPPLHTSEEELGFSKFVSA [K7EL06] | 26 ± 1.2% | 24.7 ± 3.6% | 5.2 ± 0.081% | 5.26 ± 0.58% | 
MRLPGVPLARPALLLLLPLLAPLLGTGAPAELRVRVRLPDGQVTEESLQADSDADSISLELRKPDGTLVSFTADFKKDVKVFRALILGELEKGQSQFQALCFVTQLQHNEIIPSEAMAKLRQKNPRAVRQAEEVRGLEHLHMDVAVNFSQGALLSPHLHNVCAEAVDAIYTRQEDVRFWLEQGVDSSVFEALPKASEQAELPRCRQVGDHGKPCVCRYGLSLAWYPCMLKYCHSRDRPTPYKCGIRSCQKSYSFDFYVPQRQLCLWDEDPYPG [Q86UD1] | 26.92 ± 0.26% | 29.75 ± 0.17% | 4.6 ± 0.4% | 14.9 ± 2% | 
